Source: US20240391954A1, “MC4R AGONIST PEPTIDES” (The Regents of the University of Michigan, priority 2021, published 2024)
Like-named read-outs stand apart in the source and are kept apart here. Starred links: 1 amine or outer side, 2 acyl side, 3 side chain; linkers in the order of their positions; H or OH if unused. Positions of bridges follow the written chain, without caps; N, C: chain ends. Non-standard residues stand in square brackets, D forms with d. Residues, ends and D or L forms follow the SMILES beside them. dTyr(O-Me) = O-methyl-D-tyrosine, COc1ccc(C[C@@H](N[*:1])C(=O)[*:2])cc1; dPhe(4-Br) = N[C@H](Cc1ccc(Br)cc1)C(=O)O; dPhe(4-F) = N[C@H](Cc1ccc(F)cc1)C(=O)O

Legend:
plasma protein [1] = experiment: plasma ultrafiltration (Centrifree), LC-MS/MS; peptide 1.0 uM
human MC4R receptor [2] = biological target: T1, human MC4R receptor (human, UniProt P32245 1-332); experiment: cell-based or functional assay
plasma protein [3] = experiment: plasma ultrafiltration (Centrifree), LC-MS/MS; peptide 0.1 uM
plasma protein [4] = experiment: plasma ultrafiltration (Centrifree), LC-MS/MS; peptide 10.0 uM
human MC3R [5] = biological target: T2, human MC3R (Homo sapiens, UniProt P41968); experiment: split-luciferase cAMP sensor assay, antagonist mode in presence of EC90 α-MSH (measurement window 2), hMC3R; assay type: cell-based; settings: agonist curves and antagonist curves in presence of EC80 to EC90 α-MSH
T2 construct: expressed in transfected cells; host or cells: HEK-293 cells stably expressing the GScAMP22F split-luciferase cAMP sensor (parent reporter line from Promega); MC3R clone generated in-house, G418 selection
Description: FIG. 2. […] Concentration-response agonist curves for CTX-2205 and CTX-1214 at the human MC3R (blue) and human MC4R (red) were determined by a split-luciferase cAMP sensor dynamic assay in HEK-293 cells stably expressing the hMC3R or hMC4R and the GScAMP22F CAMP sensor. The antagonist curves were determined in the presence of an EC80 to EC90 concentration of α-MSH. Each data point represents the mean±SEM of two experiments with three replicates each per experiment. Data is normalized to the ECmax of α-MSH.
The assay for the determination of the cAMP response in live cells was described previously. (Yu et al., 2020, Science 368, 428-433; incorporated by reference in its entirety). […] Intracellular cAMP levels were measured using an FDSS 7000EX Functional Drug Screening System (Hamamatsu Photonics, Hamamatsu, Japan) in the Center for Chemical Genomics at the Life Sciences Institute. This instrument allowed the in-line addition of test-peptides and receptor agonists while simultaneously acquiring the luminescence signal from live cells. […]
With this set up it was possible to evaluate the direct effect of the test-peptides on the MC3R and MC4R cell lines during measurement window 1, while the antagonist profile in the presence of EC90 α-MSH was determined on measurement window 2. […]

human MC3R [6] = biological target: T2, human MC3R; experiment: split-luciferase cAMP sensor assay, agonist mode (measurement window 1), hMC3R; assay type: cell-based; settings: agonist mode, hMC3R stable cell line; for Emax: read-out: MC3R cAMP % max activation
Outline: (§1)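 Live stable cell lines carrying receptor plus GloSensor cAMP22f split-luciferase, loaded with 4% D-luciferin in serum-free medium (~1% serum estimated during assay). Luminescence recorded during in-line peptide addition; direct agonist effect read in window 1, with 20 μM forskolin as normalization reference. EC50 from four-parameter sigmoid fit.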

human MC4R = biological target: T3, human MC4R (Homo sapiens, UniProt P32245); experiment: split-luciferase cAMP sensor assay, agonist mode (measurement window 1), hMC4R; assay type: cell-based; settings: for Emax: read-out: MC4R cAMP % max activation
T3 construct: host or cells: HEK-293 cells stably expressing the GScAMP22F split-luciferase cAMP sensor and hMC4R, G418 selection
Outline: as §1

human MC4R receptor [7] = biological target: T1, human MC4R receptor; experiment: cell-based or functional assay; remark: listed apart in the source
human MC3R [8] = biological target: human MC3R (human, UniProt P41968 1-323); experiment: cell-based or functional assay
human MC4R receptor [9] = biological target: T1, human MC4R receptor; experiment: cell-based or functional assay; remark: listed apart in the source
[10] = agonist mode, hMC4R stable cell line

T1 sequence (P32245 whole entry): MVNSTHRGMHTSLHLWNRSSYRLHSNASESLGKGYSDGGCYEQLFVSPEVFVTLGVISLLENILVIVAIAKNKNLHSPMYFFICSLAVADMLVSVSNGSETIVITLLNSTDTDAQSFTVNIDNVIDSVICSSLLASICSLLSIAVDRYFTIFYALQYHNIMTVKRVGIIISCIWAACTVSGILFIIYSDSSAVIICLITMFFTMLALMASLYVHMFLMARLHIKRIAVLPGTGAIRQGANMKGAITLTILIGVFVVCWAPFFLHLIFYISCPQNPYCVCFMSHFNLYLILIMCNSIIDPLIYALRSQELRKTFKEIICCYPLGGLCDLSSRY
T3 sequence (P32245 whole entry): as above
T2 sequence (P41968 whole entry): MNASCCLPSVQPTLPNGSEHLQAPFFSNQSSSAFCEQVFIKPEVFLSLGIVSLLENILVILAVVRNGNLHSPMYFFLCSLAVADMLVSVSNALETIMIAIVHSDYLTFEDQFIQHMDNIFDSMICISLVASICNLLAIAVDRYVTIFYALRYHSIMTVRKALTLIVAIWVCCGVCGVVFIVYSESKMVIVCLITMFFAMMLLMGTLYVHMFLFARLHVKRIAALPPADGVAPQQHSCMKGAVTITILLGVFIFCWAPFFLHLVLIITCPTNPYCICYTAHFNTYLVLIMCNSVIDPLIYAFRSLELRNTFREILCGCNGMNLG
human MC3R (human, UniProt P41968 1-323), sequence (P41968 whole entry): as above

Row | Molecule | Protein Binding (%) (plasma protein [1]) | MC4R selectivity vs MC1R (human MC4R receptor [2]) | MC4R selectivity vs MC3R (human MC4R receptor [2]) | Protein Binding (%) (plasma protein [3]) | Protein Binding (%) (plasma protein [4]) | pharmacological properties at hMC4R and hMC3R (human MC3R [5]) | Emax (human MC3R [6]) | EC50 (human MC3R [6]; read-out: MC3R cAMP EC50) | MC4R selectivity vs MC3R (human MC4R) | Emax (human MC4R; [10]) | EC50 (human MC4R; agonist mode, hMC4R stable cell line, read-out: MC4R cAMP EC50) | MC4R selectivity vs MC1R (human MC4R) | % max activation (human MC4R receptor [7]) | cAMP EC50 (human MC4R receptor [7]) | % max activation (human MC3R [8]) | cAMP EC50 (human MC3R [8]) | MC4R selectivity vs MC1R (human MC4R receptor [9]) | MC4R selectivity vs MC3R (human MC4R receptor [9])
1 | CTX-1200 (setmelanotide) (peptide) | 57% | 0.69 | 4.09 | 43% | 61% | – | – | – | – | – | – | – | – | – | – | – | – | –
2 | CC(=O)N[C@@H](CCCNC(=N)N)C(=O)N[C@H]1CSSC[C@@H](C(N)=O)NC(=O)[C@@H](Cc2c[nH]c3ccccc23)NC(=O)[C@H](CCCNC(=N)N)NC(=O)[C@@H](Cc2ccc(Br)cc2)NC(=O)[C@H](CCCNC(=N)N)NC(=O)[C@@H](C)NC1=O [CTX-1214, Arg-cyclo(Cys-D-Ala-Arg-D-Phe(4-Br)-Arg-D-Trp-Cys)] (Ac-RC[dA]R[dPhe(4-Br)]R[dW]C-NH2; disulfide 2-8 (inferred)) | – | – | – | – | – | dual MC4R agonist, MC3R antagonist properties | 15% | 4.1 nM | 0.2 | 74% | 2.6 nM | – | – | – | – | – | – | –
3 | CC(=O)N[C@@H](CCCNC(=N)N)C(=O)N[C@H]1CSSC[C@@H](C(N)=O)NC(=O)[C@H](Cc2c[nH]c3ccccc23)NC(=O)[C@H](CCCNC(=N)N)NC(=O)[C@@H](Cc2ccc(Br)cc2)NC(=O)[C@H](CCCNC(=N)N)NC(=O)[C@@H](C)NC1=O [CTX-2205, Arg-cyclo(Cys-D-Ala-Arg-D-Phe(4-Br)-Arg-Trp-Cys)] (Ac-RC[dA]R[dPhe(4-Br)]RWC-NH2; disulfide 2-8) | – | – | – | – | – | dual MC4R agonist, MC3R antagonist properties | 13% | – | 2.12 | 88% | – | 0.2 | – | – | – | – | – | –
4 | Ac-RC[dA]R[dPhe(4-Br)]RFC-NH2 (disulfide 2-8; SMILES CC(=O)N[C@@H](CCCNC(=N)N)C(=O)N[C@H]1CSSC[C@@H](C(N)=O)NC(=O)[C@H](Cc2ccccc2)NC(=O)[C@H](CCCNC(=N)N)NC(=O)[C@@H](Cc2ccc(Br)cc2)NC(=O)[C@H](CCCNC(=N)N)NC(=O)[C@@H](C)NC1=O) [CTX-1258] | 50% | – | – | 47% | 50% | – | – | – | – | – | – | – | 92% | 2.4 nM | 36% | 7.4 nM | 0.53 | 3.04
5 | Ac-RC[dA]R[dPhe(4-F)]R[dW]C-NH2 (disulfide 2-8) [CTX-1236] | 49% | – | – | 45% | 51% | – | – | – | – | – | – | – | 97% | 1.9 nM | 66% | 2.6 nM | 2.01 | 1.36
6 | Ac-RC[dA]R[dTyr(O-Me)]R[dW]C-NH2 (disulfide 2-8; SMILES COc1ccc(C[C@H]2NC(=O)[C@H](CCCNC(=N)N)NC(=O)[C@@H](C)NC(=O)[C@@H](NC(=O)[C@H](CCCNC(=N)N)NC(C)=O)CSSC[C@@H](C(N)=O)NC(=O)[C@@H](Cc3c[nH]c4ccccc34)NC(=O)[C@H](CCCNC(=N)N)NC2=O)cc1) [CTX-1238] | 47% | – | – | 53% | 41% | – | – | – | – | – | – | – | 79% | 6.2 nM | 21% | 3 nM | 0.44 | 0.49
